The target in the data set is MutL (Escherichia coli) (UniProt P23367). Nature of the data set: single-molecule flow-extension. The note with it: 25 mM NaCl, 0.5 mM ATP, 2.5 pN; S0.5, multiple MutL bind; smFRET: 20 mM Tris-HCl pH 7.5, 25-150 mM NaCl (25 mM standard), 0.1 mM EDTA, 3 mM MgCl2, 0.5 mM ATP, 1 mM DTT, oxygen scavenger with 2 mM trolox ….
Chain of UniProt P23367 (P23367 whole entry): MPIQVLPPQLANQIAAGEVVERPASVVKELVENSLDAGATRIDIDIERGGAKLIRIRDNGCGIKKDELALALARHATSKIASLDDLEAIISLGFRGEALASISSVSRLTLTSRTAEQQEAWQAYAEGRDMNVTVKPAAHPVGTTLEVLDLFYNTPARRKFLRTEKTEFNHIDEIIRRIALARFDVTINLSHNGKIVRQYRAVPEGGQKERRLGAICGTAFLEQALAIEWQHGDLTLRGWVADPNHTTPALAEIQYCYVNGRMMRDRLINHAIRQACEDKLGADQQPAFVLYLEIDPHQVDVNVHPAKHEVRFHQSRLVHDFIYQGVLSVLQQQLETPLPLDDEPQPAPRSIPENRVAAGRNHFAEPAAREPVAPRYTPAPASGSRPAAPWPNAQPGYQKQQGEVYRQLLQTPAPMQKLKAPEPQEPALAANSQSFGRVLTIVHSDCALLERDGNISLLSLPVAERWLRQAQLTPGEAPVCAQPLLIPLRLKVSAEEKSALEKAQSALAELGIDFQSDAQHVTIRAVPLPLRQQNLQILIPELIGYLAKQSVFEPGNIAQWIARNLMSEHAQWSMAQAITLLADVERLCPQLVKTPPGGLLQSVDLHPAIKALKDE

As to 5.3 kb ssDNA, the K half is 24 nM.

(Values after publication PMC2980497.)
